Each block holds one molecule with its values, some of them ahead of it.
What was measured:
[1] = molecular target: 全长的人CD226 (hCD226) on Jurkat cells (human) (UniProt Q15762); experiment: flow cytometry on Jurkat cells transfected with TIGIT and CD226
[2] = molecular target: CD33SP-OKT3scFv-CD28TC (鼠抗人CD3抗体 OKT3单链抗体, shown on CHO cells); experiment: flow cytometry, 40 nM Biotin-Protein L on CHO cells transfected with OKT3scFv, Streptavidin PE
[3] = molecular target: T1, PVR (Poliovirus receptor) expressed on CHO-OKT3 cells (Homo sapiens (Human)) (UniProt P15151); experiment: flow cytometry, 40 nM TIGIT-Fc on CHO-OKT3 cells transfected with PVR, anti-human Fc-PE
T1 sequence: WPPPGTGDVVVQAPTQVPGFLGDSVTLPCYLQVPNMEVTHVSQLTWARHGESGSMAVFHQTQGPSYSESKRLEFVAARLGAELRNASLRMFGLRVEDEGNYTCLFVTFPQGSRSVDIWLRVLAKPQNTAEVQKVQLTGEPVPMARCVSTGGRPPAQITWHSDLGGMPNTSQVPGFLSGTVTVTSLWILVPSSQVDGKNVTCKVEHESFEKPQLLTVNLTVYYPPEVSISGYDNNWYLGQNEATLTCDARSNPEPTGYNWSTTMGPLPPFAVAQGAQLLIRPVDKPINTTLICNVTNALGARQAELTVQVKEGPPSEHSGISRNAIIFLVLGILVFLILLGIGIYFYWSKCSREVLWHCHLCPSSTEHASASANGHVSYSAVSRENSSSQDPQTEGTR

Sequence of CD33SP-OKT3scFv-CD28TC (鼠抗人CD3抗体 OKT3单链抗体, shown on CHO cells) (scFv, as listed by the source): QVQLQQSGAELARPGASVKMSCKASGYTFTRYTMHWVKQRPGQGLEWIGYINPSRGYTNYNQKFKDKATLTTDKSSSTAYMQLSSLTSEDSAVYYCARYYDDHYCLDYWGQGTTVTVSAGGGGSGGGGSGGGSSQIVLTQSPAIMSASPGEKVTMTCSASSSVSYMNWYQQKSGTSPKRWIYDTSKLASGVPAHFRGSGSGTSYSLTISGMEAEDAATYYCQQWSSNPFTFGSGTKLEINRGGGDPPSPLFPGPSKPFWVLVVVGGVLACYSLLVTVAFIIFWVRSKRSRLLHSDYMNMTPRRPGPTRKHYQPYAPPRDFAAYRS
Sequence of UniProt Q15762 (Q15762 19-336 limits assumed): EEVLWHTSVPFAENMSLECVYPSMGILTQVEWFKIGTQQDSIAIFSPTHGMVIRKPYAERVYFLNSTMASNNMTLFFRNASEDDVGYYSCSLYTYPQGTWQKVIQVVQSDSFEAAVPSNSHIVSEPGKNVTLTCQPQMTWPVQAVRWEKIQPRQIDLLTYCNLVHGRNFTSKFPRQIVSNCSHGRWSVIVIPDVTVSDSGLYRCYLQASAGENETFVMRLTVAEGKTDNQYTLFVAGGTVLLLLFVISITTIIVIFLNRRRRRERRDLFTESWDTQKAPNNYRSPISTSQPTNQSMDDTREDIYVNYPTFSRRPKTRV

细胞阳性率 (percent positive cells) [1]: 12.7%
Molecule: anti-CD226 PE (R&D Systems, Inc. #FAB666P) (antibody)

阳性率 (percent positive cells) [2]: 42.6%
Molecule: Biotin-Protein L (金斯瑞生物科技, 货号 M00097)

阳性率 (percent positive cells) [3]: 93.2%
B1: TIGIT-Fc蛋白 (Fc fusion, UniProt Q495A1 22-141, looked up, not shown: a dimerising Fc or GST)
chain: MMTGTIETTGNISAEKGGSIILQCHLSSTTAQVTQVNWEQQDQLLAICNADLGWHISPSFKDRVAPGPGLGLTLQSLTVNDTGEYFCIYHTYPDGTYTGRIFLEVLESSVAEHGARFQIP
